# From patent US20260043020A1, “BINDING MEMBERS WITH ALTERED DIVERSITY SCAFFOLD DOMAINS” (priority 2016, published 2026)
# T1: trypsin (Bos taurus, UniProt P00760)
# T1 construct: gene PRSS1
# T1 sequence (P00760 24-246): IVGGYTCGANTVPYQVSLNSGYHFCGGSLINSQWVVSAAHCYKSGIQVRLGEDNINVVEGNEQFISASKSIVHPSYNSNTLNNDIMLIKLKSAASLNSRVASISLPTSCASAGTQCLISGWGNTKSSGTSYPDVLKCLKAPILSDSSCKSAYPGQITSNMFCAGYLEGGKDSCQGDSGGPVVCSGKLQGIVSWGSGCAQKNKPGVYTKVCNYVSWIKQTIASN
# Tests used:
# [1] = molecular target: T1, trypsin; assay: KnotBody Fab TRF binding assay on trypsin; conditions: Fab format
# [2] = molecular target: T1, trypsin; assay: Monoclonal phage TRF binding assay on trypsin (KnotBody clones and GlyAla mutants); conditions: for % reduction in binding signal: GlyAla mutant (EETI-II Pro3 to Gly, Arg4 to Ala) of the clone versus the clone, monoclonal phage, trypsin on streptavidin plates; for Tryspin binding signal (FU): monoclonal phage supernatant of round-2 clones, biotinylated trypsin on neutravidin plates
# Experimental: Phage display technology facilitates isolation of binders to any given target from large combinatorial repertoires based on proteins and peptides that can be presented on the surface of filamentous phage^105. In order to isolate functional knottin-antibody fusions from the KnotBody libraries multiple rounds of phage display selections on trypsin (cognate antigen for the EETI-II donor) were carried out. Phage particles were prepared by rescuing KnotBody libraries using trypsin cleavable helper phage^102,106Two rounds of phage display selections were performed on 10 μg/ml biotinylated trypsin immobilised on Streptavidin (for Round-1) or Neutravidin (for round-2) coated Maxisorp™ immunotubes (Thermo Scientific, Cat No. 444202). In both rounds of selection, phage libraries were pre-incubated with streptavidin coated paramagnetic beads (Thermo Fisher Scientific, Cat. No. 11205D). These beads were removed prior to the addition the phage to the antigen tubes to limit the streptavidin binders entering the selection. Polyclonal phage preparations from round-2 selection outputs were analysed for trypsin binding using a time resolved fluorescence (TRF) binding assay. In this assay, polyclonal phage binding to biotinylated trypsin immobilised on neutravidin (Thermo Fisher Scientific, Cat. No 31000) coated Maxisorp™ plates (Thermo Scientific, Cat. No. 437111) was detected using a mouse anti-M13 antibody (GE Healthcare, Cat. No. 27-9420-01) followed by europium conjugated anti-mouse antibody (Perkin Elmer, Cat. No. AD0124).
# In order to identify monoclonal KnotBodies with desired binding characteristics, 94 individual clones derived from 2 rounds of selection using EETI-II CDR1 or CDR2 libraries were picked into 96 well culture plates and phage were prepared from each clone. Methods for screening by monoclonal phage ELISA are known in the art^107. […] Clones with >3× binding signal above background were picked as positive clones and sequenced to identify unique clones. 14 and 42 unique binders were identified from EETI-II CDR1 and EETI-II CDR2 libraries respectively (Table 1). 18 binders from the EETI-II CDR2 library and 3 binders from the EETI-II-CDR1 library were chosen for further characterisation based on their VL and linker sequence diversity. These binders were assigned new clone identification numbers (Table 2).
# The trypsin binding capability of EETI-II is attributed to proline (Pro3) and arginine (Arg4) residues present in its loop1 (GCPRILMRC; SEQ ID NO: 68). […] Monoclonal phage was prepared from the 21 selected clones and their mutant equivalents. […] Replacement of the trypsin-binding residues of EETI-II abolished the ability of all KnotBody clones to bind to trypsin (Table 3). In order to confirm that the loss of trypsin binding was not due to reduced expression or display of pIII fusion phage was prepared from 11 (randomly chosen) KnotBodies and their GlyAla variants were analysed on a western blot using an antibody which recognises the product of gene 3 (pIII) using an anti-pIII antibody (MoBiTec GmbH) (FIG. 6).
# [3] = molecular target: T1, trypsin; assay: Monoclonal phage ELISA on trypsin, EET 5-3 framed KnotBodies; type: binding; conditions: value in brackets after the clone name
# Excerpt: Following selection on trypsin, as described in example 3, positive clones were identified by monoclonal phage ELISA and their sequences determined. Examples of positive clones in CDR1 or CDR 2 of kappa and lambda light chains are shown in Table 29 with the linker sequences shown in lower case and the knottin donor in a 5-3 frame shown in italics. Also shown is the value of ELISA signal attained from monoclonal phage ELISA. The specificity of interaction was further confirmed by mutating the pair of Proline-Arginine residues involved in interaction with trypsin to alanine-alanine which diminished binding (as described in example 3).
Molecule,TRF signal for 0.6 ug/mL Fab [1],TRF signal for 2.4 ug/mL Fab [1],TRF signal for 10 ug/mL Fab [1],% reduction in binding signal [2] [%],Tryspin binding signal (FU) [2] [FU],ELISA signal from monoclonal phage ELISA [3]
"KB_C09: KnotBody, EETI-II in VL CDR2; VL SEQ ID NO: 120 (antibody, V domains shown, EETI-II in VL CDR2; CDR2_C_08) VL: QSVLTQPPSVSEAPRQRVTITCSGSSSNIGNNAVNWYQQLPGKAPKLLIYAAGRCPRILMRCKQDSDCLAGCVCGPNGFCGGGSGVPDRFSGSIDSSSNSASLTISGLRAEDEADYYCQSYDSSNHWVFGGGTKLTVLGQP",46788,204878,288988,100,89424,
"KB_C10: KnotBody, EETI-II in VL CDR2; VL SEQ ID NO: 123 (antibody, V domains shown, EETI-II in VL CDR2; CDR2_E_05) VL: QSVLTQPPSVSEAPRQRVTITCSGSSSNIGNNAVNWYQQLPGKAPKLLIYAAGPCPRILMRCKQDSDCLAGCVCGPNGFCGADSGVSDRFSGSKSGTSASLAITGLQAEDEGDYYCAAWDDSLNGLVFGGGTKVTVLGQP",41709,146488,238066,100,118631,
"F01: KnotBody with EET 5-3 framed EETI-II in kappa VL CDR2; SEQ ID NO: 312 (protein, F01 (101798)) DIQMTQSPSSLSASVGDRVTITCRASQSISSYLNWYQQKPGKAPKLLIDAAGECGPNGFCGSGSDGGVCPRINMRCKQDSDCLAGCGRDSGVPSRFSGSGSGTDFTLTISSLQPEDFATYYCQQSYSTPWTFGQGTKVEIKRT",,,,,,F01 (101798)
"F07: KnotBody with EET 5-3 framed EETI-II in VL CDR2; SEQ ID NO: 314 (protein, F07 (72824)) QSVLTQPPSVSEAPRQRVTITCSGSSSNIGNNAVNWYQQLPGKAPKLLIYAAGGCGPNGFCGSGSDGGVCPRILMRCKQDSDCLAGCGGQSGVPDRFSGSKSGTSASLAISRLQSEDEADYYCAAWDDSLNAYVFGTGTKVTVLGQP",,,,,,F07(72824)
"KB_B11: KnotBody, EETI-II in VL CDR1; VL SEQ ID NO: 86 (antibody, V domains shown, heavy chain missing; CDR1_F_02) VL: QSVLTQPPSVSEAPRQRVTITCGSRPCPRILMRCKQDSDCLAGCVCGPNGFCGSHNWYQQLPGSSPTTVIYEDNQRPSGVPDRFSGSIDRSSNSASLTISGLKTEDEADYYCQSYDSSNHRVVFGGGTKLTVLGQP",,,,100,10286,
"G11: KnotBody with EET 5-3 framed EETI-II in VL CDR2; SEQ ID NO: 317 (protein, G11 (27650)) QSVLTQPPSVSEAPRQRVTITCSGSSSNIGNNAVNWYQQLPGKAPKLLIYAAGGCGPNGFCGSGSDGGVCPRILMRCKQDSDCLAGCGQSSGVSDRFSGSKSGTSATLDITGLQTGDEADYYCGTWDNSLSVGVFGGGTKVTVLGQP",,,,,,G11 (27650)
